T1: G9a and GLP (Homo sapiens, UniProt Q96KQ7+Q9H9B1)
T1 sequence (Q96KQ7 2-1210 limits assumed): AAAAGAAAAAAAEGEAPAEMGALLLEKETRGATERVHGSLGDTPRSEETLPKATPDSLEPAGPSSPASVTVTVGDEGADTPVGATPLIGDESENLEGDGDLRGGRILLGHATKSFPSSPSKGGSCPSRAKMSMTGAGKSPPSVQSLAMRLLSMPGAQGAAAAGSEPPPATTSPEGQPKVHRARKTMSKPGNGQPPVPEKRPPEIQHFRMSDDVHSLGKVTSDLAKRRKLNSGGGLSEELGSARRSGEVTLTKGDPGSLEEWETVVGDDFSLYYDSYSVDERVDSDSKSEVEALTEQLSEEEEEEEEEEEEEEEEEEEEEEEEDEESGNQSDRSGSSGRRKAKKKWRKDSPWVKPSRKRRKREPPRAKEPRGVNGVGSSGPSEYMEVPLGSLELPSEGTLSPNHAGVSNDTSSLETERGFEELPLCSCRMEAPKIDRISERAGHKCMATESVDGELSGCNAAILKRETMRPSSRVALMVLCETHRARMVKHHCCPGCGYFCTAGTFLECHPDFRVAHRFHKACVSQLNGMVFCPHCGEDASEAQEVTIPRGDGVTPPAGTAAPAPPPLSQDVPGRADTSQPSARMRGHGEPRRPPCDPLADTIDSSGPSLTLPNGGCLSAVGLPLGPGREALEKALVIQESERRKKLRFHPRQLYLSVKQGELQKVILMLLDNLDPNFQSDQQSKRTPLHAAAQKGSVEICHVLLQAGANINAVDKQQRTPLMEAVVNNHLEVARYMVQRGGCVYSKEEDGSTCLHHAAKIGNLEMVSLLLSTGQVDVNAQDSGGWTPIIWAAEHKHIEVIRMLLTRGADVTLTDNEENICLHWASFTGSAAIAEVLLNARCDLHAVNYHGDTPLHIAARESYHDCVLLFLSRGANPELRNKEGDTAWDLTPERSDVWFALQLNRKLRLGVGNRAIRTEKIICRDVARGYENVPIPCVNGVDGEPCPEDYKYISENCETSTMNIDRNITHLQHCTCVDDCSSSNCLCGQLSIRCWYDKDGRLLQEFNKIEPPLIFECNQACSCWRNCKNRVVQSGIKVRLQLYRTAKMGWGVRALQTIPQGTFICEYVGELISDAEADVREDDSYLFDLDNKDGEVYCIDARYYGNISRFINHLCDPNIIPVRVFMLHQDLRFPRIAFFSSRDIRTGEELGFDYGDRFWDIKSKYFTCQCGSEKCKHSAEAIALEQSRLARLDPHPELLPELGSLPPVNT
T1 sequence (Q9H9B1 2-1298 limits assumed): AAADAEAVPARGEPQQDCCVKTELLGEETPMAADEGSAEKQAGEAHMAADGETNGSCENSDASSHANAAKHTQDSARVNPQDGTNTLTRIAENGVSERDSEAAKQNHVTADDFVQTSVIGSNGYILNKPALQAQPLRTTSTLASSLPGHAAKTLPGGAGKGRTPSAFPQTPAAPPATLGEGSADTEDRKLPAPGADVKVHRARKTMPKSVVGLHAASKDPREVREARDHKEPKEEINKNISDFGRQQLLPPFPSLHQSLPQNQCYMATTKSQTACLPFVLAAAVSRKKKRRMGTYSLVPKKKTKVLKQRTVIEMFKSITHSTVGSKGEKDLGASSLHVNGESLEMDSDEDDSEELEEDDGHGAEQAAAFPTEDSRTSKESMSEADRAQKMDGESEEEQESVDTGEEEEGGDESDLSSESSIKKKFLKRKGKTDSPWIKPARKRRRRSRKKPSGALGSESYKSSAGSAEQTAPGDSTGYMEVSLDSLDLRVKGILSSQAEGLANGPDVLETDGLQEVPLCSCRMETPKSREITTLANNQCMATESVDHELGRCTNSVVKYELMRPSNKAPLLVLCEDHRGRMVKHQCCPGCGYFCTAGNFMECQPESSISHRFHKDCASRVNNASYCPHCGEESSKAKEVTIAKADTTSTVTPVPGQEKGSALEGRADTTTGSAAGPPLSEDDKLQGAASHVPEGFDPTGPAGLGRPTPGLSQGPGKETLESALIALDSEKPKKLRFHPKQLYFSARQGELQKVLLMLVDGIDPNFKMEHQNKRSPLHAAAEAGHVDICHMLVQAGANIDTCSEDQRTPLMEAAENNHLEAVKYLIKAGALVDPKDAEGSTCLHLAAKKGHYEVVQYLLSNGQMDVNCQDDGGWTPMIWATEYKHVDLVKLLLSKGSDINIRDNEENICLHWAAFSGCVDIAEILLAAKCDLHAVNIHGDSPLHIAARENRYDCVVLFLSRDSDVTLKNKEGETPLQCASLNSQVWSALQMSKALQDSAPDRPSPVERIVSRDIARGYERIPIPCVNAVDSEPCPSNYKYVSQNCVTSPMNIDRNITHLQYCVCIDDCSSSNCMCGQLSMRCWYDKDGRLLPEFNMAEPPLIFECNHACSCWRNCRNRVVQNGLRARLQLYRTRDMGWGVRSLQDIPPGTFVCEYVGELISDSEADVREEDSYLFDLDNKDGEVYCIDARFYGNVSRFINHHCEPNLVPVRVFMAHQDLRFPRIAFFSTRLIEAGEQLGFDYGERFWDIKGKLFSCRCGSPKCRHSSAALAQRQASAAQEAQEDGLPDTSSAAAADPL

B1: ACIN1: a known G9a substrate (protein, UniProt Q9UKV3 1-1341, looked up)
Apoptotic chromatin …: MWRRKHPRTSGGTRGVLSGNRGVEYGSGRGHLGTFEGRWRKLPKMPEAVGTDPSTSRKMAELEEVTLDGKPLQALRVTDLKAALEQRGLAKSGQKSALVKRLKGALMLENLQKHSTPHAAFQPNSQIGEEMSQNSFIKQYLEKQQELLRQRLEREAREAAELEEASAESEDEMIHPEGVASLLPPDFQSSLERPELELSRHSPRKSSSISEEKGDSDDEKPRKGERRSSRVRQARAAKLSEGSQPAEEEEDQETPSRNLRVRADRNLKTEEEEEEEEEEEEDDEEEEGDDEGQKSREAPILKEFKEEGEEIPRVKPEEMMDERPKTRSQEQEVLERGGRFTRSQEEARKSHLARQQQEKEMKTTSPLEEEEREIKSSQGLKEKSKSPSPPRLTEDRKKASLVALPEQTASEEETPPPLLTKEASSPPPHPQLHSEEEIEPMEGPAPAVLIQLSPPNTDADTRELLVSQHTVQLVGGLSPLSSPSDTKAESPAEKVPEESVLPLVQKSTLADYSAQKDLEPESDRSAQPLPLKIEELALAKGITEECLKQPSLEQKEGRRASHTLLPSHRLKQSADSSSSRSSSSSSSSSRSRSRSPDSSGSRSHSPLRSKQRDVAQARTHANPRGRPKMGSRSTSESRSRSRSRSRSASSNSRKSLSPGVSRDSSTSYTETKDPSSGQEVATPPVPQLQVCEPKERTSTSSSSVQARRLSQPESAEKHVTQRLQPERGSPKKCEAEEAEPPAATQPQTSETQTSHLPESERIHHTVEEKEEVTMDTSENRPENDVPEPPMPIADQVSNDDRPEGSVEDEEKKESSLPKSFKRKISVVSATKGVPAGNSDTEGGQPGRKRRWGASTATTQKKPSISITTESLKSLIPDIKPLAGQEAVVDLHADDSRISEDETERNGDDGTHDKGLKICRTVTQVVPAEGQENGQREEEEEEKEPEAEPPVPPQVSVEVALPPPAEHEVKKVTLGDTLTRRSISQQKSGVSITIDDPVRTAQVPSPPRGKISNIVHISNLVRPFTLGQLKELLGRTGTLVEEAFWIDKIKSHCFVTYSTVEEAVATRTALHGVKWPQSNPKFLCADYAEQDELDYHRGLLVDRPSETKTEEQGIPRPLHPPPPPPVQPPQHPRAEQREQERAVREQWAEREREMERRERTRSEREWDRDKVREGPRSRSRSRDRRRKERAKSKEKKSEKKEKAQEEPPAKLLDDLFRKTKAAPCIYWLPLTDSQIVQKEAERAERAKEREKRRKEQEEEEQKEREKEAERERNRQLEREKRREHSRERDRERERERERDRGDRDRDRERDRERGRERDRRDTKRHSRSRSRSTPVRDRGGRR
B2: MATR3 (protein, UniProt P43243 2-847, looked up)
Matrin-3: SKSFQQSSLSRDSQGHGRDLSAAGIGLLAAATQSLSMPASLGRMNQGTARLASLMNLGMSSSLNQQGAHSALSSASTSSHNLQSIFNIGSRGPLPLSSQHRGDADQASNILASFGLSARDLDELSRYPEDKITPENLPQILLQLKRRRTEEGPTLSYGRDGRSATREPPYRVPRDDWEEKRHFRRDSFDDRGPSLNPVLDYDHGSRSQESGYYDRMDYEDDRLRDGERCRDDSFFGETSHNYHKFDSEYERMGRGPGPLQERSLFEKKRGAPPSSNIEDFHGLLPKGYPHLCSICDLPVHSNKEWSQHINGASHSRRCQLLLEIYPEWNPDNDTGHTMGDPFMLQQSTNPAPGILGPPPPSFHLGGPAVGPRGNLGAGNGNLQGPRHMQKGRVETSRVVHIMDFQRGKNLRYQLLQLVEPFGVISNHLILNKINEAFIEMATTEDAQAAVDYYTTTPALVFGKPVRVHLSQKYKRIKKPEGKPDQKFDQKQELGRVIHLSNLPHSGYSDSAVLKLAEPYGKIKNYILMRMKSQAFIEMETREDAMAMVDHCLKKALWFQGRCVKVDLSEKYKKLVLRIPNRGIDLLKKDKSRKRSYSPDGKESPSDKKSKTDGSQKTESSTEGKEQEEKSGEDGEKDTKDDQTEQEPNMLLESEDELLVDEEEAAALLESGSSVGDETDLANLGDVASDGKKEPSDKAVKKDGSASAAAKKKLKKVDKIEELDQENEAALENGIKNEENTEPGAESSENADDPNKDTSENADGQSDENKDDYTIPDEYRIGPYQPNVPVGIDYVIPKTGFYCKLCSLFYTNEEVAKNTHCSSLPHYQKLKKFLNKLAEERRQKKET
B3: XRN2 (protein, UniProt Q9H0D6 1-950, looked up)
5'-3' exoribonuclease 2: MGVPAFFRWLSRKYPSIIVNCVEEKPKECNGVKIPVDASKPNPNDVEFDNLYLDMNGIIHPCTHPEDKPAPKNEDEMMVAIFEYIDRLFSIVRPRRLLYMAIDGVAPRAKMNQQRSRRFRASKEGMEAAVEKQRVREEILAKGGFLPPEEIKERFDSNCITPGTEFMDNLAKCLRYYIADRLNNDPGWKNLTVILSDASAPGEGEHKIMDYIRRQRAQPNHDPNTHHCLCGADADLIMLGLATHEPNFTIIREEFKPNKPKPCGLCNQFGHEVKDCEGLPREKKGKHDELADSLPCAEGEFIFLRLNVLREYLERELTMASLPFTFDVERSIDDWVFMCFFVGNDFLPHLPSLEIRENAIDRLVNIYKNVVHKTGGYLTESGYVNLQRVQMIMLAVGEVEDSIFKKRKDDEDSFRRRQKEKRKRMKRDQPAFTPSGILTPHALGSRNSPGSQVASNPRQAAYEMRMQNNSSPSISPNTSFTSDGSPSPLGGIKRKAEDSDSEPEPEDNVRLWEAGWKQRYYKNKFDVDAADEKFRRKVVQSYVEGLCWVLRYYYQGCASWKWYYPFHYAPFASDFEGIADMPSDFEKGTKPFKPLEQLMGVFPAASGNFLPPSWRKLMSDPDSSIIDFYPEDFAIDLNGKKYAWQGVALLPFVDERRLRAALEEVYPDLTPEETRRNSLGGDVLFVGKHHPLHDFILELYQTGSTEPVEVPPELCHGIQGKFSLDEEAILPDQIVCSPVPMLRDLTQNTVVSINFKDPQFAEDYIFKAVMLPGARKPAAVLKPSDWEKSSNGRQWKPQLGFNRDRRPVHLDQAAFRTLGHVMPRGSGTGIYSNAAPPPVTYQGNLYRPLLRGQAQIPKLMSNMRPQDSWRGPPPLFQQQRFDRGVGAEPLLPWNRMLQTQNAAFQPNQYQMLAGPGGYPPRRDDRGGRQGYPREGRKYPLPPPSGRYNWN

Columns and labels:
[1] = target: T1, G9a and GLP; assay: Triple SILAC pull-down after UNC0638 treatment of 293T cells, DMSO/UNC0638 ratio of protein captured by 3×MBT; format: cell-based; parameters: cells were treated for 24 hours with UNC0638 at 2.5 μM or DMSO vehicle control; endogenous in cells; host or cells: HEK 293T; settings: 293T cells;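 note: mass spectrometry (Q-Exactive) SILAC quantitation, DMSO/UNC0638 ratio computed after subtracting 3×MBTD355N mutant pull-down background, only proteins with at least twofold 3×MBT over mutant signal considered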
[2] = system: 3×MBT domain of L3MBTL1; assay: Triple SILAC pull-down, 3xMBT/3xMBTD355N ratio (cytoplasmic, nuclear and chromatin fractions of 293T cells); format: binding, human; settings: SILAC ratio, pull-down 3xMBT vs 3xMBTD355N; for 3xMBT/D355N UNC Heavy: experiment with UNC0638 in heavy SILAC media; for 3xMBT/D355N UNC Light: experiment with UNC0638 in light SILAC media;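 for all read-outs here: proteins quantified with MaxQuant, requiring at least two unique peptides and quantification in both label directions, normalized to the mean of proteins from a digested loading control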
[3] = target: T1, G9a and GLP; assay: Triple SILAC pull-down after UNC0638 treatment of 293T cells, DMSO/UNC0638 ratio of protein captured by 3×MBT; format: cell-based; parameters: endogenous in cells; host or cells: HEK 293T; settings: for Relative to UNC0638 UNC Heavy / Relative to UNC0638 UNC Light: SILAC ratio DMSO/UNC0638 of protein pulled down with 3xMBT; for Relative to UNC0638 UNC Heavy: UNC0638 in heavy SILAC media; for Relative to UNC0638 UNC Light: UNC0638 in light SILAC media; for Relative to UNC0638 Average: average of UNC Light and UNC Heavy experiments;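 for all read-outs here: mass spectrometry (Q-Exactive) SILAC quantitation, DMSO/UNC0638 ratio computed after subtracting 3×MBTD355N mutant pull-down background, only proteins with at least twofold 3×MBT over mutant signal considered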

Molecule	change in amount captured by 3×MBT following UNC0638 treatment [1]	3xMBT/D355N UNC Heavy [2] [log base 2]	3xMBT/D355N UNC Light [2] [log base 2]	Relative to UNC0638 UNC Heavy [3] [log base 2]	Relative to UNC0638 UNC Light [3] [log base 2]	Relative to UNC0638 Average [3] [log base 2]
B1	decreased strongly	–	–	–	–	–
B2	–	1.72	1.77	0.37	0.14	0.26
B3	–	2.19	2.76	0.34	0.18	0.26

From US20140274782A1, “AFFINITY REAGENTS AND METHODS FOR DETECTION, PURIFICATION, AND PROTEOMIC ANALYSIS OF METHYLATED PROTEINS” (The Board of Trustees of the Leland Stanford Junior …, priority 2013, published 2014)
